In article PMC9565474, “Evolution avoids a pathological stabilizing interaction in the immune protein S100A9” (Proceedings of the National Academy of Sciences of the …, 2022):

Target: the molecule itself
Assay: NMR structure; calcium-bound hS100A9/M63F, 0.5 to 1.0 mM dimer, 25 mM Tris, 100 mM NaCl, 10 mM CaCl2 (pH 7.4), 10% D2O, 25 °C or 37 °C; homodimer with chains A and B

B1: hS100A9/M63F (natural protein, human, UniProt P06702 1-114, looked up)
chain: MTSKMSQLERNIETIINTFHQYSVKLGHPDTLNQGEFKELVRKDLQNFLKKENKNEKVIEHIFEDLDTNADKQLSFEEFIMLMARLTWASHEKMHEGDEGPGHHHKPGLGEGTP
notes: human S100A9, Uniprot P06702, Cys-free (C3S) background with M63F; 114 residues (residues 1 to 114 named in the NMR structure); 15N or 15N/13C labelled for NMR; also called human S100A9 M63F; F/F
B1: binds.
